# Paper PMC11192940
# Target: GST-Rheb protein (UniProt Q15382)
# Experiment: BLI
# Chain of GST-Rheb protein (Q15382 1-169): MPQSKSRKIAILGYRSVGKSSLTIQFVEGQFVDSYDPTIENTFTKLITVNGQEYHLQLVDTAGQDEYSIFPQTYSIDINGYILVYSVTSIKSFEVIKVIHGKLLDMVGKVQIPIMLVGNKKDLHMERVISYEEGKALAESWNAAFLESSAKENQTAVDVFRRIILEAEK
substance,measurement,value
"His-IL-37d, recombinant human IL-37d protein with a TAT peptide (pET-22b-TAT-his-IL-37d; mature IL-37d 21–197aa) (from UniProt Q9NZH6-4 21-197)",Kd,54.2 nM
